Consider eleven molecules from patent publication US20240317852A1 (Molecular Partners, published 2024).

First the molecules themselves.
B1: DARPin® protein #14, monovalent CD33 specific binding protein (designed binder)
chain: MRGSHHHHHHGSDLGWKLLNAAIAGQDDEVRILLAAGADVNAKDTEYGWTPLHIAASDGHLEIVEVLLKAGADVNAKDYAGSTPLHAAAFVGHLEIVEVLLKAGADVNAQDHQGQTPADLAAQQGHVDIAEVLQKAA
notes: Crude extract in the HTRF
B2: DARPin® protein #1, monovalent CD33 specific binding protein (designed binder)
chain: MRGSHHHHHHGSDLGWKLLLAASRGQDDEVRILLAAGADVNAKDIDEGYTPLHIAAYYGHLEIVEVLLKAGADVNAKDRYGKTPLHLAAISGHEDIAEVLLKAGADVNAQDDKGDTPADLAADYGHEDIAEVLQKAA
notes: Crude extract in the HTRF; also called DARPin® protein #91 [sic]
B3: DARPin® protein #9 in TCE format (formatted with a CD3-specific ankyrin repeat domain) (designed binder)
chain: MRGSHHHHHHGSDLGYKLLWAASAGQDDEVRILLAAGADVNAKDKDGATPLHFAAAKGHLEIVEVLLKAGADVNAKDNRGATPLHYVAAASGHLEIVEVLLKAGADVNAQDEWGNTPADLAAIYGHGDIAEVLQKAA
notes: Crude extract HTRF construct also carried a C-terminal Flag tag; not shown: which one,
B4: DARPin® protein #7 in TCE format (formatted with a CD3-specific ankyrin repeat domain) (designed binder)
chain: MRGSHHHHHHGSDLGLKLLRAAYDGQDDEVRILLAAGADVNAKDWQGFTPLHYAAVLGHLEIVEVLLKAGADVNAKDQEGATPLHLAALHGHLEIVEVLLKAGADVNAQDESGWTPADLAAKWGHEDIAEVLQKAA
notes: as for B3
B5: DARPin® protein #16 in TCE format (formatted with a CD3-specific ankyrin repeat domain) (designed binder)
chain: MRGSHHHHHHGSDLGKKLLQAARAGQLDEVRELLKAGADVNAKDHQGETPLHLAASQGHLEIVEVLLKAGADVNAKDLAGYTPLHLAAWTGHLEIVEVLLKAGADVNAKDQWGRTPLHIAAASGHLEIVEVLLKAGADVNAQDKSGKTPADLAARAGHQDIAEVLQKAA
notes: as for B3
B6: DARPin® protein #15 in TCE format (formatted with a CD3-specific ankyrin repeat domain) (designed binder)
chain: MRGSHHHHHHGSDLGKKLLQAARAGQLDEVRELLKAGADVNAKDLIGWTPLHLAAHYGHLEIVEVLLKAGADVNAKDAQGWTPLHIAAWEGHLEIVEVLLKAGADVNAKDWTGETPLHLAAFEGHLEIVEVLLKAGADVNAQDKSGKTPADLAARAGHQDIAEVLQKAA
notes: as for B3
B7: DARPin® protein #5 in TCE format (formatted with a CD3-specific ankyrin repeat domain) (designed binder)
chain: B6 chain with G15S, L45Q, W48Q, H56Q, Y57S, A78T, Q79E, I86V, F122Y, E123Q
notes: as for B3
B8: DARPin® protein #14 in TCE format (formatted with a CD3-specific ankyrin repeat domain) (designed binder)
chain: B1 chain
notes: as for B3
B9: DARPin® protein #3 in TCE format (formatted with a CD3-specific ankyrin repeat domain) (designed binder)
chain: MRGSHHHHHHGSDLGVKLLRAAFHGQDDEVRILLAAGADVNAKDTDGETPLHYAAQFGHLEIVEVLLKAGADVNAKDAYGATPLHWAAWHGHLEIVEVLLKAGADVNAQDVSGATPADLAAKVGHEDIAEVLQKAA
notes: as for B3
B10: DARPin® protein #8 in TCE format (formatted with a CD3-specific ankyrin repeat domain) (designed binder)
chain: MRGSHHHHHHGSDLGWKLLSAATLGQDDEVRILLAAGADVNAKDEWGKTPLHWAASTGHLEIVEVLLKAGADVNAKDLWGHTPLHEAAAKGHLEIVEVLLKAGADGNAQDNIGDTPADLAAYQGHEDIAEVLQKAA
notes: as for B3
B11: DARPin® protein #1 in TCE format (formatted with a CD3-specific ankyrin repeat domain) (designed binder)
chain: B2 chain
notes: not shown: which one,

Positions count from the first letter of the chain named.

The first assay concerns the target T1, biotinylated splice variant of the extracellular domain of human CD33 (residues 140-259, constant domain … (human, UniProt P20138 140-259, biotinylated with BirA-GST (Avi tag))).
T1 construct: Bought from Evitria; a second Fc chain may be present, not described; also called splice variant CD33; spliced variant; not shown: C-terminal Fc tag and Avi tag
T1 chain: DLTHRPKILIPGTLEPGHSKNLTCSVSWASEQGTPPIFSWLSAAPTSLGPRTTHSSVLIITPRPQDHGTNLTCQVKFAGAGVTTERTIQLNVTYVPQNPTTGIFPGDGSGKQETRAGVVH
The assay can be described thus: HTRF, 6 nM biotinylated hCD33-C2-Fc(kih)-Avi, Strep-Tb and anti-6His-d2. On the procedure:
First, a binding experiment has been performed against full-length (V/C2 domains) and truncated CD33 (C2 domain) by HTRF, using crude extracts of the three CD33-specific binding proteins DARPin® protein #1. DARPin® protein #9 and DARPin® protein #14. Binding to the CD33 target was detected using Strep-Tb and anti-His-D2 HTRF reagents. In brief, crude extract of DARPi® protein #1, DARPin® protein #9 and DARPin® protein #14 was diluted 1:250 (final 1:1000) with PBSTB and added into a 384-well plate (PerkinElmer, 6008280). Then, the biotinylated target_hCD33-Fc(kih)-Avi (full-length CD33; purchased from Evitria) and hCD33-C2-Fc(kih)-Avi (truncated CD33; purchased from Evitria) respectively was diluted to 8 nM (final 6 nM) and mixed with the HTRF reagents Mab Anti-6His-d2 and Strep-Tb, both 1:200 diluted (final 1:400). As depicted in FIG. 5, all three CD33 specific binding proteins DARPin® protein #1. DARPin® protein #9 and DARPin® protein #14 show binding to the full-length CD33 but only DARPin® protein #9 binds to the truncated CD33 target.
A general note: Time-resolved FRET reads energy transfer from a long-lived donor to a nearby acceptor.
As for B1, the binding result was “no binding”. For B2, the binding result is “no binding”.

The next assay deals with T1, biotinylated splice variant of the …. The assay can be described thus: SPR (ProteOn XPR36), biotinylated splice variant CD33 on NLC chip, DARPin at 50 nM, single trace.
For the molecule B3, binding was characterised by a dissociation constant (Kd) of 1.9 nM.

For another assay the target is unchanged. As to the kind of experiment: SPR (ProteOn XPR36), biotinylated splice variant CD33 on NLC chip.
In the case of B4, the binding result is on record as “no binding (tested: 50 nM)”. Same read-out and setting: the value for B5 was “no binding (tested: 50 nM)”. The same measure, in the same setting: with B6 the entry was “no binding (tested: 50 nM)”; with B7, “no binding (tested: 50 nM)”. The same measure, in the same setting: with B8 the entry was “no binding (tested: 50 nM)”; with B9, “no binding (tested: 50 nM)”.

In the case of B10, the binding result is on record as “no binding (tested: 50 nM)”. Turning to B11, the binding result is listed as “no binding (tested: 50 nM)”.

The Kd is the free concentration of one partner at which half of the binding sites on the other are occupied at equilibrium, for simple one-to-one binding. A lower Kd goes with higher affinity.
